The record followed here is patent publication US20070172455A1.

Assay [1] has as its target gp130 on F10.9 melanoma cells (UniProt Q00560). In words: cell-based or functional assay.
In assay [2] the target is soluble form of gp130 (sgp130) (human) (UniProt P40189). Briefly: plate binding assay on sgp130 captured by anti-human gp130 mAb; rhuIL-6 at 500 ng/ml with sIL-6RδVal at 2 to 500 ng/ml, detected with rabbit anti-IL-6R; Scatchard plot.
Sequence of soluble form of gp130 (sgp130) (human) (P40189 23-619 limits assumed): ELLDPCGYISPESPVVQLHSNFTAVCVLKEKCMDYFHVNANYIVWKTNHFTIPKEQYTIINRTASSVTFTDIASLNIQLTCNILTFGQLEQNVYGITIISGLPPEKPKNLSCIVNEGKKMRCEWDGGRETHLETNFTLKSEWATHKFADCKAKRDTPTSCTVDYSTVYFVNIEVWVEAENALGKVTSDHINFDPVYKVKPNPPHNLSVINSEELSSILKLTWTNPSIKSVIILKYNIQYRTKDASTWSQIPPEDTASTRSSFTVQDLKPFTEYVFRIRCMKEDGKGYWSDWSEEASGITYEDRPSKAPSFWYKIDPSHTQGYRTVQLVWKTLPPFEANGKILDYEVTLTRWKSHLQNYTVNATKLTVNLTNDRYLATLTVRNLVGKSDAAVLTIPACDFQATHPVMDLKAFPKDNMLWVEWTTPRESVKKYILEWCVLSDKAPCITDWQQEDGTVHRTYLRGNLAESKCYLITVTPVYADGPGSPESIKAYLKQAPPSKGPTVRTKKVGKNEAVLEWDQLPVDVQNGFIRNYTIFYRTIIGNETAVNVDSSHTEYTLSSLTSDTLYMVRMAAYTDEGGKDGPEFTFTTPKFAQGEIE

Sequence of gp130 on F10.9 melanoma cells (Q00560 23-917 limits assumed): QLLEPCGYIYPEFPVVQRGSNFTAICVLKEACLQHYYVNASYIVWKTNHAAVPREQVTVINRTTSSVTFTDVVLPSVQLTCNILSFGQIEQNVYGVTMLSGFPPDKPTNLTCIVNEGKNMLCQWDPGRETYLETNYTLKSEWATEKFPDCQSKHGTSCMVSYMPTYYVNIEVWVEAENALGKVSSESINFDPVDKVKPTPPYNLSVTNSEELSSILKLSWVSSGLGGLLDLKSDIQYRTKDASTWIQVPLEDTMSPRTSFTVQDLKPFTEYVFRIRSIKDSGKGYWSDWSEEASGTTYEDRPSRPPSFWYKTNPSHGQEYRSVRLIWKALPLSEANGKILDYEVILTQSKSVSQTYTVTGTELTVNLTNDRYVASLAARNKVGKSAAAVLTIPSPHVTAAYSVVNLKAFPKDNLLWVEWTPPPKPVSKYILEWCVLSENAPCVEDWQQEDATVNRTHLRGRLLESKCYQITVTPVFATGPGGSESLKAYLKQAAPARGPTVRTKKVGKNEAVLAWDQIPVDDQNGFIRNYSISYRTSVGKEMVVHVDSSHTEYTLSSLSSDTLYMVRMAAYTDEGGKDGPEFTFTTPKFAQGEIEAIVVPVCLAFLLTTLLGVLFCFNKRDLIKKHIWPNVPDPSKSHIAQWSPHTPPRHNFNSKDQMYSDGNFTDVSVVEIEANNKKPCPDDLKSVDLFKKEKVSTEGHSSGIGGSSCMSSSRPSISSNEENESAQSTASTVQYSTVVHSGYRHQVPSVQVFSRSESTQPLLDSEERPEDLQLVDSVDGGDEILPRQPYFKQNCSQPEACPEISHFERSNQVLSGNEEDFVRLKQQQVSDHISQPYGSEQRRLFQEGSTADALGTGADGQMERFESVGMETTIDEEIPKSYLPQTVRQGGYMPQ

As usually defined, the Kd is a measure of binding affinity in units of concentration. High values mean a looser complex, low ones a tighter complex. For “mixture of human IL-6 and sIL-6R (rhuIL-6 together with human sIL-6RδVal) (from UniProt P08887 20-356; P05231 29-212)”, in assay [1], the maximal inhibition of F10.9 cells (growth inhibition, crystal violet, 4 days); IL-6 concentration in the mixture was determined as 7.5 nM and the maximal inhibition of F10.9 cells (growth inhibition, crystal violet, 4 days); sIL-6RδVal concentration in the mixture is 2 nM. The Kd in assay [2] is 0.26 nM.
